The results in this text go back to patent US20160030526A1 (GENERAL HOSPITAL, published 2016).

In the assay the target is monovalent murine IL-2 fusion toxin (DT390-mIL-2-6xHis). The assay can be described thus: flow cytometry on CTLL-2 cells. On the technique in general: In flow cytometry, cells or beads pass a laser one at a time.

B1: murine IL-2 receptor on murine CD25+ CTLL-2 cells (receptor)
chain 1: ELCLYDPPEVPNATFKALSYKNGTILNCECKRGFRRLKELVYMRCLGNSWSSNCQCTSNSHDKSRKQVTAQLEHQKEQQTTTDMQKPTQSMHQENLTGHCREPPPWKHEDSKRIYHFVEGQSVHYECIPGYKALQRGPAISICKMKCGKTGWTQPQLTCVDEREHHRFLASEESQGSRNSSPESETSCPITTTDFPQPTETTAMTETFVLTMEYKVAVASCLFLLISILLLSGLTWQHRWRKSRRTI
chain 2: AVKNCSHLECFYNSRANVSCMWSHEEALNVTTCHVHAKSNLRHWNKTCELTLVRQASWACNLILGSFPESQSLTSVDLLDINVVCWEEKGWRRVKTCDFHPFDNLRLVAPHSLQVLHIDTQRCNISWKVSQVSHYIEPYLEFEARRRLLGHSWEDASVLSLKQRQQWLFLEMLIPSTSYEVQVRVKAQRNNTGTWSPWSQPLTFRTRPADPMKEILPMSWLRYLLLVLGCFSGFFSCVYILVKCRYLGPWLKTVLKCHIPDPSEFFSQLSSQHGGDLQKWLSSPVPLSFFSPSGPAPEISPLEVLDGDSKAVQLLLLQKDSAPLPSPSGHSQASCFTNQGYFFFHLPNALEIESCQVYFTYDPCVEEEVEEDGSRLPEGSPHPPLLPLAGEQDDYCAFPPRDDLLLFSPSLSTPNTAYGGSRAPEERSPLSLHEGLPSLASRDLMGLQRPLERMPEGDGEGLSANSSGEQASVPEGNLHGQDQDRGQGPILTLNTDAYLSLQELQAQDSVHLI
chain 3: WSSKVLMSSANEDIKADLILTSTAPEHLSAPTLPLPEVQCFVFNIEYMNCTWNSSSEPQATNLTLHYRYKVSDNNTFQECSHYLFSKEITSGCQIQKEDIQLYQTFVVQLQDPQKPQRRAVQKLNLQNLVIPRAPENLTLSNLSESQLELRWKSRHIKERCLQYLVQYRSNRDRSWTELIVNHEPRFSLPSVDELKRYTFRVRSRYNPICGSSQQWSKWSQPVHWGSHTVEENPSLFALEAVLIPVGTMGLIITLIFVYCWLERMPPIPPIKNLEDLVTEYQGNFSAWSGVSKGLTESLQPDYSERFCHVSEIPPKGGALGEGPGGSPCSLHSPYWPPPCYSLKPEA
notes: whole, on cells; also called murine CD25+ IL-2 receptor
Take B1: the binding result is given as “binds”.
